This note sets out measurements from paper PMC7909837, “Function and Regulation of Chloroplast Peroxiredoxin IIE” (Antioxidants, 2021).

The assay has as its target T1, 14-3-3 υ protein, recombinant (A. thaliana, UniProt P42645 1-268).
T1 construct: 14-3-3 υ, A. thaliana, AT5G16050; construct and tags not described
T1 sequence (looked up): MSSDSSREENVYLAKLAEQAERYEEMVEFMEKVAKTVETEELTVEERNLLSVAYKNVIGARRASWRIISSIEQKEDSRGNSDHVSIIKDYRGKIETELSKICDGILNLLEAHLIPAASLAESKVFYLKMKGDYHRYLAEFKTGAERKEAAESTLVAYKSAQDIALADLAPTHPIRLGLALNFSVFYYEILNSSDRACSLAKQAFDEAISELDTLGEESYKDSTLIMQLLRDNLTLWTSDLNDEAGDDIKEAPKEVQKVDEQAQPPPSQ
The experiment in a line: far-Western, overlay or dot blot; dilution series of recombinant 14-3-3 υ spotted on nitrocellulose; incubated with PRX-IIE or its phospho-mimicry variants in TBS with either 1 mM DTT or 100 µM H2O2 overnight at 4 °C; detected with anti-PRX-IIE antibody; spots quantified with ImageJ. The note with it: both partners purified.

B1: Peroxiredoxin IIE (PRX-IIE), wild type, His6-tagged recombinant (enzyme, A. thaliana, UniProt Q949U7 71-234, looked up)
chain: ASISVGDKLPDSTLSYLDPSTGDVKTVTVSSLTAGKKTILFAVPGAFTPTCSQKHVPGFVSKAGELRSKGIDVIACISVNDAFVMEAWRKDLGINDEVMLLSDGNGEFTGKLGVELDLRDKPVGLGVRSRRYAILADDGVVKVLNLEEGGAFTNSSAEDMLKAL
notes: Peroxiredoxin IIE, A. thaliana, AT3G52960, cloned into pET28a (NdeI/BamHI); also called PRX-IIE WT; WT PRX-IIE; source: E. coli BL21 (DE3)pLysS, purified (Ni-NTA, dialysis)
Consider B1, for which the “fold improvement of binding under oxidizing conditions (100 µM H2O2) against the other conditions” value was determined as 2.5 fold.
